From patent US20090280138A1 (OXFORD BIOMEDICA UK, published 2009)

B1: 5T4 9 mer peptide 38 VKCVNRNLT (peptide)
peptide: VKCVNRNLT
notes: also called Peptide No 38
B2: 5T4 9 mer peptide 40 NRNLTEVPT (peptide)
peptide: NRNLTEVPT
notes: also called Peptide No 40
B3: 5T4 9 mer peptide 42 TEVPTDLPA (peptide)
peptide: TEVPTDLPA
notes: also called Peptide No 42
B4: 5T4 9 mer peptide 43 VPTDLPAYV (peptide)
peptide: VPTDLPAYV
notes: also called Peptide No 43
B5: 5T4 9 mer peptide 44 TDLPAYVRN (peptide)
peptide: TDLPAYVRN
notes: also called Peptide No 44
B6: 5T4 9 mer peptide 45 LPAYVRNLF (peptide)
peptide: LPAYVRNLF
notes: also called Peptide No 45
B7: 5T4 9 mer peptide 47 VRNLFLTGN (peptide)
peptide: VRNLFLTGN
notes: also called Peptide No 47
B8: 5T4 9 mer peptide 3 CSRGPAAGD (peptide)
peptide: CSRGPAAGD
notes: also called Peptide No 3
B9: 5T4 9 mer peptide 49 FLTGNQLAV (peptide)
peptide: FLTGNQLAV
notes: also called Peptide No 49
B10: 5T4 9 mer peptide 54 PAGAFARRP (peptide)
peptide: PAGAFARRP
notes: also called Peptide No 54
B11: 5T4 9 mer peptide 55 GAFARRPPL (peptide)
peptide: GAFARRPPL
notes: also called Peptide No 55
B12: 5T4 9 mer peptide 57 RRPPLAELA (peptide)
peptide: RRPPLAELA
notes: also called Peptide No 57
B13: 5T4 9 mer peptide 58 PPLAELAAL (peptide)
peptide: PPLAELAAL
notes: also called Peptide No 58
B14: 5T4 9 mer peptide 59 LAELAALNL (peptide)
peptide: LAELAALNL
notes: also called Peptide No 59
B15: 5T4 9 mer peptide 61 AALNLSGSR (peptide)
peptide: AALNLSGSR
notes: also called Peptide No 61
B16: 5T4 9 mer peptide 62 LNLSGSRLD (peptide)
peptide: LNLSGSRLD
notes: also called Peptide No 62
B17: 5T4 9 mer peptide 65 RLDEVRAGA (peptide)
peptide: RLDEVRAGA
notes: also called Peptide No 65
B18: 5T4 9 mer peptide 66 DEVRAGAFE (peptide)
peptide: DEVRAGAFE
notes: also called Peptide No 66

What follows are binders tested against T1, MHC class I allele A*0301 (bound via biotin to streptavidin-coated plate) (assay: iTopia peptide binding assay).
T1 construct: iTopia MHC class I monomer on the plate; placeholder peptide and b2M removed, then reconstituted with test peptide and fresh b2M; also called A3; HLA A3
Protocol: (§1) The 9 mers were tested for Peptide Binding, Off Rate and Affinity using iTopia Epitope Discovery System in accordance with the manufacturer's instructions. Briefly, 96 well microtitre plates coated with MHC molecules representing different MHC alleles are used to identify candidate peptides. […] Determinations are performed in duplicate using an ELISA plate reader and included allele specific positive controls.
(§2) i) Peptide Binding—This assay measures the ability of individual peptides to bind to the MHC molecules under standardized optimal binding conditions. The assay is performed for all the test peptides across the selected MHC alleles. The test peptides identified as “binders” are characterized further in terms of affinity and dissociation experiments.

Binder	% of positive control peptide binding [%]
B1	0
B2	0
B3	0
B4	0
B5	1
B6	2
B7	0
B8	5
B9	3
B10	3
B11	3
B12	2
B13	4
B14	3
B15	13
B16	2
B17	17
B18	7

What follows are binders tested against T2, MHC class I allele B*0702 (bound via biotin to streptavidin-coated plate) (assay: iTopia peptide binding assay).
T2 construct: iTopia MHC class I monomer on the plate; placeholder peptide and b2M removed, then reconstituted with test peptide and fresh b2M; also called B7; HLA B7
Protocol: as §1, §2

Binder	% of positive control peptide binding [%]
B1	2
B2	5
B3	0
B4	11
B5	2
B6	90
B7	3
B8	3
B9	6
B10	7
B11	91
B12	9
B13	33
B14	16
B15	3
B16	7
B17	32
B18	12

These binders were tested against T3, MHC class I allele A*0101 (bound via biotin to streptavidin-coated plate) (assay: iTopia peptide binding assay).
T3 construct: iTopia MHC class I monomer on the plate; placeholder peptide and b2M removed, then reconstituted with test peptide and fresh b2M; also called A1; HLA A1
Protocol: as §1, §2

Binder	% of positive control peptide binding [%]
B1	6
B2	1
B3	3
B4	33
B5	7
B6	7
B7	0
B8	0
B9	4
B10	2
B11	0
B12	2
B13	6
B14	15
B15	3
B16	2
B17	4
B18	6

The binders below were run against T4, MHC class I allele A*0201 (bound via biotin to streptavidin-coated plate) (assay: iTopia peptide binding assay).
T4 construct: iTopia MHC class I monomer on the plate; placeholder peptide and b2M removed, then reconstituted with test peptide and fresh b2M; also called A2; HLA A2
Protocol: as §1, §2

Binder	% of positive control peptide binding [%]
B1	3
B2	6
B3	7
B4	29
B5	3
B6	14
B7	5
B8	3
B9	90
B10	4
B11	41
B12	11
B13	19
B14	63
B15	6
B16	7
B17	69
B18	9
